In PMC4503980 (Scientific Reports, 2015):
Ends that are not written are not given here. Peptide text beside a SMILES is read from it. * marks the point of attachment. X1 = CCN1C(=CC=CC=CC2=[N+](CCCCCC(=O)NCCN3C(=O)CC(*)C3=O)c3ccc(S(=O)(=O)[O-])cc3C2(C)C)C(C)(C)c2cc(S(=O)(=O)O)ccc21

B1: nNOS-PDZ: recombinant extended PDZ domain of nNOS (12–130 human for FP; 12–134 Mus musculus for ITC/NMR) (protein, UniProt P29475 12-130, looked up, fragment)
chain: QPNVISVRLFKRKVGGLGFLVKERVSKPPVIISDLIRGGAAEQSGLIQAGDIILAVNGRPLVDLSYDSALEVLRGIASETHVVLILRGPEGFTTHLETTFTGDGTPKTIRVTQPLGPPT
B2: extended Mus musculus nNOS-PDZ (residues 12-134) (domain or fragment, UniProt Q9Z0J4 12-134, looked up)
chain: QPNVISVRLFKRKVGGLGFLVKERVSKPPVIISDLIRGGAAEQSGLIQAGDIILAVNDRPLVDLSYDSALEVLRGIASETHVVLILRGPEGFTTHLETTFTGDGTPKTIRVTQPLGTPTKAVD
notes: neuronal nitric oxide synthase (nNOS), Mus musculus, extended PDZ domain, residues 12-134, Uniprot Q9JJ30; Construct of the ITC and NMR experiments; 15N-labelled in some NMR samples; also called extended nNOS-PDZ; source: sub-cloned into pETM11, expressed and purified following a similar protocol to that of PSD-95-PDZ2
B3: PSD-95-PDZ2 (157-249, human) (domain or fragment, UniProt P78352 157-249, looked up)
chain: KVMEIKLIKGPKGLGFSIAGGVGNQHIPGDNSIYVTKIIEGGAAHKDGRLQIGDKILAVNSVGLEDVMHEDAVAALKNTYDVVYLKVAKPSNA
notes: PSD-95, human, PDZ2 domain, residues 157-249; Construct of the ITC and NMR experiments; 15N-labelled in some NMR samples

What was measured:
[1] = target: T1, nNOS-PDZ (Homo sapiens, UniProt P29475); assay: FP saturation and inhibition assay, Cy5-Nav1.4 probe / nNOS-PDZ; type: binding
T1 construct: nNOS-PDZ (12–130, human); made in house; host or cells: E. coli
Procedure: Fluorescent probes were made by attaching fluorophores (Cy5) to C-terminal 10- or 11-mer (C10 or C11) peptide ligands representing canonical and natural occurring protein partners (Supplementary Table S1). […] (Fig. 2).
(b) Cy5-GluN2B as probe (50 nM), [PDZ2] = 6 μM. (c) Cy5-CRIPT as probe (50 nM), [PDZ3] = 5 μM. […] Error bars indicate SEM based on three individual measurements.
nNOS-PDZ (12–130, human) and α-Syntrophin-PDZ (82–200, human), both comprising an N-terminal His-tag/FXa-site sequence ([…]), were likewise expressed in E. coli and purified by HisTrap chromatography followed by gel-filtration as described in details previously. To make the TAMRA-labelled nNOS-PDZ, mutant nNOS-PDZ (V36C) protein was generated by standard site-directed mutagenesis and characterized as described previously. Here, dithiothreitol was added to the pooled protein sample after HisTrap purification to a final concentration of 10 mM to eliminate unwanted disulfide bonds, and a final gel-filtration (50 mM NaPi buffer pH 7.5) was performed to remove impurities and salts. Next, purified nNOS-PDZ (V36C) was desalted by dialysis into 50 mM (NH4)2CO3 buffer (SnakeSkin dialysis tubing 3.5 MWCO, Pierce, Rockford, IL, USA) and subsequently lyophilized. nNOS-PDZ (V36C) was redissolved in 500 μL buffer (6 M GnHCl, 200 mM NaPi) and solid TAMRA-maleimide (5-tetramethylrhodamine-C2-maleimide; Anaspec, Fremont, CA, USA) was added in excess (cf. ESI-LC-MS). The coupling reaction was incubated at room temperature for 16 hours and TAMRA-labelled nNOS-PDZ was purified by preparative HPLC, and refolded in assay buffer. Functional validation was performed by FP[19], and all final proteins were characterized for purity and identity by SDS-PAGE and ESI-LC-MS.
Incubation time was 10–15 minutes (room temperature), and the assay was performed in a 1 × TBS buffer (150 mM NaCl, 10 mM Tris, pH 7.4) using black flat-bottom 384-well plates (Corning Life Sciences, NY) and a Safire2 plate-reader (Tecan, Männedorf, Switzerland). G-factor was adjusted so that probe alone (i.e. without protein interacting-partner) would give an FP value of 20 mP. This background value was subsequently subtracted from the raw data before plotting and analyzing the data. TAMRA- and Cy5-probes were measured at excitation/emission values of 530/585 nm (bandwidth = 20 nm) and 635/670 nm (bandwidth = 15 nm), respectively. […]
FP values were fitted to the general equation: Y = Bottom + (Top–Bottom)/[1 + (10^(X-logIC50)*HillSlope)], where X is the logarithmic value of peptide/compound concentration, and Y is the experimental FP values. Competitive inhibition constants, Ki values, were calculated from the IC50 values to quantify affinities between test substance and protein[42]. […]

[2] = target: PDZ1-2 (61-249) from PSD-95 (human); assay: fluorescence polarisation; inhibition of TAMRA-Cnskr2 (5 nM)/PDZ2 (1.5 μM) or PDZ1-2 (1 μM) by increasing unlabelled nNOS-PDZ or GluN2B-C5; 1 x TBS pH 7.4; Ki calculated from IC50
[3] = target: PDZ2 (155-249) from PSD-95 (human); assay: as above
[4] = target: TAMRA-labelled nNOS-PDZ (V36C) (human) (UniProt P29475); assay: fluorescence polarisation; saturation binding: increasing PDZ domain protein (typically 0-150 μM) added to a fixed low concentration of TAMRA- or Cy5-labelled probe (5 or 50 nM); 1 x TBS (150 mM NaCl, 10 mM Tris, pH 7.4), 10-15 min, room temperature
[5] = target: TAMRA-Cnskr2; assay: as above
[6] = target: Cy5-Nav1.4; assay: as above
[7] = target: T2, PSD-95-PDZ1-2 (Homo sapiens, UniProt P78352); assay: FP saturation and inhibition, TAMRA-Cnskr2 / PSD-95-PDZ1-2; type: binding; details: TAMRA-Cnskr2 5 nM, PDZ1-2 1 μM
T2 construct: PDZ1-2 (61-249); made in house; host or cells: E. coli BL21-DE3 pLysS
Description: (§1) First we tested a series of 23 fluorescent-labelled C-terminal peptide ligands (Supplementary Table S1) derived from PDZ-interacting proteins in order to find a probe with good activity towards the PSD-95 PDZ domains and no or little activity against nNOS-PDZ (Supplementary Fig. S1). The Cnskr2 probe fulfilled these selectivity criteria and was used to generate saturation curves with PDZ2 and PDZ1-2 of PSD-95 (Fig. 4a). […] Next, fixed concentrations of TAMRA-Cnskr2, PSD-95-PDZ2/1-2, and nNOS-PDZ were applied, corresponding to the conditions at IC50 of the nNOS-PDZ inhibition curve (Fig. 4b) where sensitivity of the assay is greatest. […] Here, we used the Sapk3-peptide as it has the desired high affinity to α1-Syntrophin-PDZ and low affinity to nNOS-PDZ (Supplementary Fig. S1).
(§2) The minor increases in mP at high concentrations, 260-2900 μM, were due to fluorescence artefacts.
(§3) Incubation time was 10–15 minutes (room temperature), and the assay was performed in a 1 × TBS buffer (150 mM NaCl, 10 mM Tris, pH 7.4) using black flat-bottom 384-well plates (Corning Life Sciences, NY) and a Safire2 plate-reader (Tecan, Männedorf, Switzerland). […] TAMRA- and Cy5-probes were measured at excitation/emission values of 530/585 nm (bandwidth = 20 nm) and 635/670 nm (bandwidth = 15 nm), respectively. […]

[8] = target: T3, PSD-95-PDZ2 (Homo sapiens, UniProt P78352); assay: ITC titration into PSD-95-PDZ2; type: binding; parameters: PSD-95-PDZ2 (157–249, human); made in house
Description: Unlike the FP experiments above, which rely on inhibition of interaction partners, the ITC method is a direct measure of binding, regardless of where it takes place on the protein.
Figure 5 ITC curves. Plots showing titrations into PDZ domains fitted to a one-site model.
For isothermal titration calorimetry (ITC) and NMR, PSD-95-PDZ2 (157–249, human) was expressed and purified as described previously. The sequence for the extended Mus musculus nNOS-PDZ (residues 12–134, Uniprot Q9JJ30) was sub-cloned into a pETM11 vector using cloning sites Nco1 and Kpn1, and the protein was expressed and purified following a similar protocol to that used for the production of PSD-95-PDZ2.
All ITC experiments were carried out at 25 °C on an iTC200 Microcalorimeter (GE Healthcare) with a 200 μL cell capacity and 40 μL syringe volume. The buffer used for all solutions was 20 mM phosphate buffer at pH 6.3; each experiment consisted of an initial injection of 0.5 μL, followed by fifteen 2.39 μL injections before a final injection of 1.89 μL. […] In both cases no heat exchange was detected, confirming that there was appropriate match of buffer conditions with no indication of dilution effects. […] For the nNOS-PDZ/PSD-95-PDZ2 interaction, 100 μM PDZ2 in the cell was titrated with 750 μM nNOS-PDZ. […] All data was analysed using the Origin®7 software programme.

[9] = target: T3, PSD-95-PDZ2; assay: FP saturation and inhibition, TAMRA-Cnskr2 / PSD-95-PDZ2; type: binding; parameters: PDZ2 (155-249); made in house; host or cells: E. coli BL21-DE3 pLysS; details: TAMRA-Cnskr2 5 nM, PDZ2 […]
Description: as §1, §2, §3

[10] = target: B3; assay: ITC; 25 °C, 20 mM phosphate buffer pH 6.3; 100 μM PDZ2 in the cell titrated with 750 μM nNOS-PDZ; one-site model; details: both partners purified
[11] = target: B2; assay: as above; details: both partners purified
[12] = target: PDZ2 (155-249) from PSD-95 (human); assay: fluorescence polarisation; 'direct' FP inhibition assay: TAMRA-nNOS (5 nM) with fixed PDZ1 (7.5 μM), PDZ2 (2.5 μM) or PDZ1-2 (0.3 μM); increasing control compound; 1 x TBS pH 7.4
[13] = target: PDZ1 (61-151) from PSD-95 (human); assay: as above
[14] = ITC, nNOS-PDZ titrated into PSD-95-PDZ2

CCN1C(=CC=CC=CC2=[N+](CCCCCC(=O)NCCN3C(=O)CC(SC[C@H](N)C(=O)N[C@@H](CC(N)=O)C(=O)N[C@@H](CC(N)=O)C(=O)NCC(=O)N[C@H](C(=O)N[C@@H](CCCNC(=N)N)C(=O)N4CCC[C@H]4C(=O)NCC(=O)N[C@H](C(=O)N[C@@H](CCCCN)C(=O)N[C@@H](CCC(=O)O)C(=O)N[C@@H](CO)C(=O)N[C@@H](CC(C)C)C(=O)N[C@H](C(=O)O)C(C)C)C(C)C)C(C)C)C3=O)c3ccc(S(=O)(=O)[O-])cc3C2(C)C)C(C)(C)c2cc(S(=O)(=O)O)ccc21 (stereo partly drawn) [Cy5-Nav1.4] (H-C(X1)NNGVRPGVKESLV-OH; N-terminus assumed) showed a Kd ([1]; saturation curve, probe 50 nM) of 20 ± 1 µM.

In the case of GluN2B-C5 (peptide), the Ki [2] is reported as 4.8 µM and the Ki [3] is reported as 1.6 µM.

Work on NNGVRPGVKESLV [Nav1.4-C10] yielded a Ki ([1]; Cy5-Nav1.4 probe 50 nM / nNOS-PDZ) of 45 ± 4 µM.

In the case of “PDZ1 (61-151) from PSD-95 (domain or fragment)”, the Kd [4] is reported as 2.4 µM.

“PDZ1-2 (61-249) from PSD-95 (domain or fragment)” showed a Kd [5] of 1.1 µM and a Kd [4] of 0.15 µM.

In the case of “PDZ2 (155-249) from PSD-95 (domain or fragment)”, the Kd [5] is reported as 0.38 µM and the Kd [4] is reported as 1.1 µM.

For “nNOS-PDZ (12-130, human) (from UniProt P29475 12-130) (domain or fragment)”, the Ki [2] was 0.81 µM, the Ki [3] was 0.088 µM and the Kd [6] was 20 µM. The Kd [5] was over 190 µM.

For B1, the Ki [7] was 0.81 ± 0.023 µM, the Kd ([8]; 100 μM PDZ2 in cell titrated with 750 μM nNOS-PDZ, pH 6.3, 25 °C) was about 0.67 µM and the “N (stoichiometry ratio)” value [8, 14] was 1.0. For the same molecule, the “T∆S” value [8, 14] was about 6.7 kcal/mol, the “∆H” value [8, 14] was about -1.7 kcal/mol and the Ki [9] was 0.088 ± 0.014 µM.

B2 was tested, and the dH [10] was about -1.7 kcal/mol and the “stoichiometry N” value [10] was 1.

In the case of B3, the Kd [11] is reported as about 0.67 µM.

In the case of {N‑cyclohexylethyl}-ETAV [N-cyclohexylethyl-ETAV], the Ki [12] is reported as 2 µM and the Ki [13] is reported as 3.9 µM.
